Measurements: article PMC2799554

Biological target: Moraxella immunoglobulin (Ig) D binding protein (MID) of M. catarrhalis BBH18, on whole bacteria and on their outer membrane vesicles (OMV) (Moraxella catarrhalis)
Experiment: flow cytometry on cells

human IgD, soluble, from serum (natural protein)
percent reduction of bacterial binding to B cells at 150 µg/ml IgD: 40%
